Data from publication doi:10.1101/2023.05.25.542299, “A Conserved Core Region of the Scaffold NEMO is Essential for Signal-induced Conformational Change and Liquid-liquid Phase Separation” (bioRxiv, 2023).

Columns and labels:
[1] = target: 45-mer peptide of IKKβ (as used in the CD experiments); assay: circular dichroism (spectra and thermal denaturation with and without ligand); 10 µM NEMO protein with or without equimolar IKKβ 45-mer peptide, incubated 1 h at room temperature; 20 mM sodium phosphate, 500 mM NaCl, pH 7.4; spectra at 25 °C, melt 10 to 70 °C at 222 nm; conditions: both partners purified
[2] = target: FITC-labeled 45-mer peptide derived from the C-terminal region of IKKβ (FITC label (position not given)); assay: fluorescence polarisation; fluorescence anisotropy binding assay with the FITC-labeled IKKβ 45-mer peptide and NEMO proteins; conditions not told (refs 13, 23); conditions: both partners purified

B1: 7XAla-NEMO (aa 1–419), bacterially expressed (natural protein)
chain: MNRHLWKSQLAEMVQPSGGPAADQDVLGEESPLGKPAMLHLPSEQGAPETLQRALEENQELRDAIRQSNQILRERAEELLHFQASQREEKEFLMAKFQEARKLVERLGLEKLDLKRQKEQALREVEHLKRAQQQMAEDKASVKAQVTSLLGELQESQSRLEAATKEAQALEGRARAASEQARQLESEREALQQQHSVQVDQLRMQGQSVEAALRMERQAASEEKRKLAQLQVAYHQLFQEYDNHIKSSVVGSERKRGMQLEDLKQQLQQAEEALVAKQEVIDKLKEEAEQHKIVMETVPVLKAQADIYKADFQAERQAREKLAEKKELLQEQLEQLQREYSKLKASAQESARIEDMRKRHVEVSQAPLPPAPAYLSSPLALPSQRRSPPEEPPDFCCPKCQYQAPDMDTLQIHVMECIE
increase in Tm with equimolar peptide [1]: 3 °C | Kd [2]: 13 ± 2.9 nM
